Square brackets hold non-standard residues; d marks the D form. Ends that are not written are not given here. Aib = CC(C)(N)C(=O)O
Target: human GLP-1 receptor (human, UniProt P43220 24-463)
Assay: cell-based or functional assay

H[Aib]QGTFTSDLSKQLDEQRA[(S)MeLys]DFIEWLIAGGPSSGAPPPS-NH2 [SEQ ID NO: 14] was tested. Which “EC50 hGLP-1R (cAMP formation, HTRF, HEK-293 cells)” value did it give?
The value was 1 pM.

— patent US20160168225A1 (Sanofi, published 2016)
